According to patent US11643467 (dated 2023):

Columns and labels:
Assay in all cases: ELISA
FGFR1-Fc = target: T1, FGFR1-Fc (human, UniProt P11362)
T1 chain: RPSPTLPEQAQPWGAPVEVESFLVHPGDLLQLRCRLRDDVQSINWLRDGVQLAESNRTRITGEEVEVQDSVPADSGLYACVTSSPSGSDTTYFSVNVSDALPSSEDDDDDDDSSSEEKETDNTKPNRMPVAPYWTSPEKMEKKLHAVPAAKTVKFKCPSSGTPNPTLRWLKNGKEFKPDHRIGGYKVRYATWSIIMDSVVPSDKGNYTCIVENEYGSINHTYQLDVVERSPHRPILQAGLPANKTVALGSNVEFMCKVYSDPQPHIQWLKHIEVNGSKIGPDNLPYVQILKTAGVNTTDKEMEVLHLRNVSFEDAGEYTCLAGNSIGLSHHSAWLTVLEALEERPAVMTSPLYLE

FGFR3-Fc = target: T2, FGFR3-Fc (human, UniProt P22607)
T2 chain: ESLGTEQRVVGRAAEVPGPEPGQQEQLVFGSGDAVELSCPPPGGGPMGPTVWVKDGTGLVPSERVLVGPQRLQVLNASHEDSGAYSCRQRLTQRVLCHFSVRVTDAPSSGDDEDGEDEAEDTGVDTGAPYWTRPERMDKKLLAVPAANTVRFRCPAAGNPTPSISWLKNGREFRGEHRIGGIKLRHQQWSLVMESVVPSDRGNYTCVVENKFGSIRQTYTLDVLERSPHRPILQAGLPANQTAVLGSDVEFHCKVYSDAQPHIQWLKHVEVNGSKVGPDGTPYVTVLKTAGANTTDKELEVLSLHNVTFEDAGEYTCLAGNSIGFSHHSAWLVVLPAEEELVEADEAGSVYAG

FGFR2-Fc = FGFR2-Fc (human, UniProt P21802)
Chain of FGFR2-Fc (P21802 22-377): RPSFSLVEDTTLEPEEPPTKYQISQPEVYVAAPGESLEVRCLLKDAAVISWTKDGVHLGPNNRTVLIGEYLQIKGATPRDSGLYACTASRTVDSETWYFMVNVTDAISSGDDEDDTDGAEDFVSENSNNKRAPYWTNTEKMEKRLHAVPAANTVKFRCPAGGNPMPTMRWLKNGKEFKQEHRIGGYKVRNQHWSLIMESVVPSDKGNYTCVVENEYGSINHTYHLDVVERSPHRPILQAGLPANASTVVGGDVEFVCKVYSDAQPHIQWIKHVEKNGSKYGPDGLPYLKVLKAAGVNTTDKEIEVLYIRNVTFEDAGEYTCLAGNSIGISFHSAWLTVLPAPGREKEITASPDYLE

Measured: binding result

B1: ch3B6 (antibody, V domains shown)
VH: EVQLVESGGGLVQPGRSLKLSCAASGFTFSNYYMAWVRQAPKKGLEWVATINPSGTRTYYPDSVKGRFTLSRDSAKSSLYLQMNSLKSEDTATFYCARLYNNYAFDYWGQGVMVTVSS
VL: DVQMTQSPALAVSPGERVSISCRASESVSTLMHWYQQKPGQQPKLLIYGTSNLESGVPARFSGSGSGTDFTLNIDPVEADDTATYFCQQSWNDPPTFGGGTKLELK
no binding: FGFR1-Fc | FGFR3-Fc | FGFR2-Fc
